This note sets out measurements from patent US20040166530A1 (BAYLOR COLLEGE OF MEDICINE, published 2004).

The target in assay [1] is phosphorylated IκB peptide (residues 21-41, phosphorylated on Ser-32 and Ser-36). Description: HeLa lysate on IκB peptide beads, anti-Skp1 immunoblot (FIG. 8). For orientation: A western blot detects proteins with antibodies after separation by electrophoresis.
Assay [2] concerns the target T1, Myc-tagged Cdc53 (Cdc53^M) (S. cerevisiae, UniProt Q12018 1-815).
T1 construct: Expressed from baculovirus in insect cells; not shown: N-terminal Myc tag
T1 sequence (looked up): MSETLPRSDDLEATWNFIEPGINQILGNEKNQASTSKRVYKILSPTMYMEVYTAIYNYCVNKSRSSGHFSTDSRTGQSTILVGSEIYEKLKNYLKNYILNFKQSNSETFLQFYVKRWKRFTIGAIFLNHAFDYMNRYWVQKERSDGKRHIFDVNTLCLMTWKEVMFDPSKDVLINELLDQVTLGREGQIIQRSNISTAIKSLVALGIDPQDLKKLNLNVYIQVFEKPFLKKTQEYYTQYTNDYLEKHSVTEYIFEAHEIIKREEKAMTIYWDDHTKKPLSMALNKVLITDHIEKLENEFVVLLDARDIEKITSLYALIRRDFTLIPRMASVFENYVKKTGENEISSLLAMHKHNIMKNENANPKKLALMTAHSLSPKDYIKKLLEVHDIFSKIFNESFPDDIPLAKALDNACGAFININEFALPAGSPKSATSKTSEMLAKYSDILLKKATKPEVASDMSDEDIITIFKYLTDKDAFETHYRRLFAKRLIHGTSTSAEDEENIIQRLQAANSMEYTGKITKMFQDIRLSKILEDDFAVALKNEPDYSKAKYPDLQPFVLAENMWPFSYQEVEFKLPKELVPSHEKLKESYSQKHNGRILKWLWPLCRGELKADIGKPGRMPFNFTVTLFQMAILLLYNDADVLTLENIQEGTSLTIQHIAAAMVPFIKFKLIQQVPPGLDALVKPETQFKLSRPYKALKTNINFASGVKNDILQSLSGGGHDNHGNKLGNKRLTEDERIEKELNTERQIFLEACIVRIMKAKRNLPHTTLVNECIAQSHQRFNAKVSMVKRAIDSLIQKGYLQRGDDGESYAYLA
The experiment in a line: anti-Cdc53^M immune complexes from insect cells, immunoblot (FIG. 2C). As to the method:
To examine the assembly of recombinant yeast proteins, 0.4 ml lysate were typically derived from 2×10⁶ cells. […] Immunopurification was performed by incubating the lysates at 4° C. for 2 hours with 4 μg of the anti-Myc or anti-G10 antibody and 8 μl of Protein A-Sepharose, or with 8 μl of immobilized anti-Flag antibodies (Kodak; See, Example 1). Immune complexes were washed three times with 1 ml of lysis butter prior to SDS-PAGE.
Associated proteins were then washed three times with 1 ml of lysis buffer prior to SDS-PAGE and immunoblotting, were performed as described above.
As shown in this Figure, phosphorylated Sic1 efficiently associates with Cdc53/Skp1/Cdc4 complexes, and this association is dependent upon the presence of Skp1 (See, FIG. 2C, lanes 6 and 8). Typically, 10-20% of the input phosphorylated Sic1 was bound at about 20 nM Sic1. […] Consistent with the results in FIG. 1, the level of Cdc4 found in immune complexes lacking Skp1 were >10-fold lower than that found in the presence of Skp1.

Assay [3] concerns the target T2, Grr1/Skp1^F/Cdc53 complex (S. cerevisiae, UniProt P24814 1-1151; P52286 1-194; Q12018 1-815).
T2 construct: also called Cdc53/Skp1/Grr1 complex; Grr1/Skp1/Cdc53 complex; not shown: N-terminal His6-G10 (T7 gene 10) tag; N-terminal Flag tag; N-terminal Myc tag
The experiment in a line: binding of 32P-labeled Sic1 complexes to anti-Skp1^F immune complexes, autoradiography (FIG. 4B). As to the method:
These experiments were conducted as described above, with the exception being that Grr1 was substituted for Cdc4 (approximately 100 ng). Proteins were separated by SDS-PAGE, and blotted with anti-Skp1 anti-Myc to detect Grr1G10 and Cdc53^M, with anti-Skp1 antibodies.
In this Figure, lanes 2-5 contain anti-Skp1^F immune complexes derived from insect cells infected with the indicated baculovirus combinations were used for binding reactions with ³²P-labeled Sic1 complexes. Ten percent of the input Sic1 complex (lane 1) was included as a control. The presence of Cdc4, Skp1, Cdc53, and Grr1 was verified by immunoblotting.

Assay [4] has as its target Flag-Cdc4 (Cdc4^F) (S. cerevisiae) (UniProt P07834). The experiment in a line: binding reaction with anti-Flag (Cdc4^F) immune complexes with increasing Skp1, immunoblot (FIG. 2D).
Assay [5] deals with T1, Myc-tagged Cdc53 (Cdc53^M). Description: anti-Myc immunoprecipitation from co-infected insect cells, immunoblot (FIG. 1A). The text has this: Insect cells were co-infected with various combinations of baculoviruses expressing Myc-tagged Cdc53 (Cdc53^M), Cdc34, Cdc4, and Skp1. Anti-Myc immune complexes from lysates of these infected cells were immunoblotted to identify associated proteins (See, FIG. 1A). […] Thus, one function of Skp1 is to facilitate association of Cdc53 with Cdc4. […] Furthermore, it appeared that Cdc53 can simultaneously associate with both Cdc34 and Skp1, as the association of Gst-Skp1 with Cdc34 is enhanced in the presence of Cdc53^M (See, FIG. 1C).
For recombinant protein expression and assembly of complexes, 4×10⁵ insect cells (Hi5, Invitrogen) were infected with the indicated virus combinations for 40 hours. These combinations included baculoviruses expressing Myc-tagged Cdc53 (Cdc53^M), Cdc34, Cdc4, and Skp1. Cells were then harvested and disrupted in lysis buffer (50 mM Tris-HCl (pH 7.5), 150 mM NaCl, 0.5% Nonidet P40, 10 mM NaF, 10 mM β-glycerol phosphate, 1 mM PMSF, and 5 μg/ml each leupeptin, antipain, and aprotinin). For isolation of protein complexes, typically about 3 ml of lysis buffer was used per 0.5×10⁸ cells.
To examine the assembly of recombinant yeast proteins, 0.4 ml lysate were typically derived from 2×10⁶ cells. […]

In assay [6] the target is T2, Grr1/Skp1^F/Cdc53 complex. Description: binding of 32P-labeled Cln kinase complexes to anti-Skp1^F immune complexes, autoradiography (FIG. 5A).
Assay [7] concerns the target Cdc4/Skp1^F complex (S. cerevisiae) (UniProt P52286). The assay is described as above.

T2 sequence (P24814 whole entry, chain 1 of 2): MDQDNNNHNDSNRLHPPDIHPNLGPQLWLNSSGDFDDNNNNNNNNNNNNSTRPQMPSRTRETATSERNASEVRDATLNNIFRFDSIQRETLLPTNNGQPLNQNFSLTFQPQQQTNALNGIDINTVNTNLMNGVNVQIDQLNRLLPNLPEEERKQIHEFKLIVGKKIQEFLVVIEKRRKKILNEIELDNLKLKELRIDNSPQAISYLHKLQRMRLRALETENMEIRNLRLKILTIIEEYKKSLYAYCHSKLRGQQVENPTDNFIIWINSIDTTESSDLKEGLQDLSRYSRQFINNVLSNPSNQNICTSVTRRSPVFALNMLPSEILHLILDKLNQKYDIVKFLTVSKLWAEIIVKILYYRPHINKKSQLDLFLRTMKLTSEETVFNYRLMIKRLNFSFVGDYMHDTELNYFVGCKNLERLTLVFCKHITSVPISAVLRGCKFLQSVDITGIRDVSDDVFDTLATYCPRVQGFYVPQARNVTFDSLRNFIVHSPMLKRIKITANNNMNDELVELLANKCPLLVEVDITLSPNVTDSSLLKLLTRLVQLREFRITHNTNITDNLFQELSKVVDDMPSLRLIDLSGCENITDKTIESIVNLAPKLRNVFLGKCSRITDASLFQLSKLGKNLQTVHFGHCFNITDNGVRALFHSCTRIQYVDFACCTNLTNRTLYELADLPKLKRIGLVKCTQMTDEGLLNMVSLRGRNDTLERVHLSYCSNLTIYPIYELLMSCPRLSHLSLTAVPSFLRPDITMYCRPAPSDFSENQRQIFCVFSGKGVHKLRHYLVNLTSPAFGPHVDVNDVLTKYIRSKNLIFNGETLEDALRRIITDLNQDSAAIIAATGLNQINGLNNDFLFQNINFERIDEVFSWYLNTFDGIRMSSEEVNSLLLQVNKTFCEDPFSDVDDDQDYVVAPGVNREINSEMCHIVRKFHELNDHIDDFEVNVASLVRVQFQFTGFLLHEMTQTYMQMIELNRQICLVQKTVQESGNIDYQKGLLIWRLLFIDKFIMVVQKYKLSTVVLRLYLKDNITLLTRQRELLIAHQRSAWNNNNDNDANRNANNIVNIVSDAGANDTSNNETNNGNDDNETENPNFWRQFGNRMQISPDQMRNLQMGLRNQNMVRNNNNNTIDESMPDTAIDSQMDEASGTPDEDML
T2 sequence (P52286 whole entry, chain 2 of 2): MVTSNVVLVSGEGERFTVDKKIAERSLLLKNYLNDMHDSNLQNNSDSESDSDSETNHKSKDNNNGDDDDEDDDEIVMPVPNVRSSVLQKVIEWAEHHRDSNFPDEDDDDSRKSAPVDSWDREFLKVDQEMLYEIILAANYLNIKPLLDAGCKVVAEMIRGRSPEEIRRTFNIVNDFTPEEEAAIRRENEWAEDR
Cdc4/Skp1^F complex (S. cerevisiae), sequence (P52286 whole entry, one chain of several): as the sequence (P52286 whole entry, chain 2 of 2) above
phosphorylated IκB peptide (residues 21-41, phosphorylated on Ser-32 and Ser-36), sequence (peptide, as listed by the source): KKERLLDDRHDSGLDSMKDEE

“Skp1 (in HeLa cell lysates) (from UniProt P63208 2-163)” came in with a percent of the Skp1 in the extracts that can associate with IκB in assay [1] of 1%.

B1: Cdc4 (other, S. cerevisiae, UniProt P07834 1-779, looked up)
chain: MGSFPLAEFPLRDIPVPYSYRVSGGIASSGSVTALVTAAGTHRNSSTAKTVETEDGEEDIDEYQRKRAAGSGESTPERSDFKRVKHDNHKTLHPVNLQNTGAASVDNDGLHNLTDISNDAEKLLMSVDDGSAAPSTLSVNMGVASHNVAAPTTVNAATITGSDVSNNVNSATINNPMEEGALPLSPTASSPGTTTPLAKTTKTINNNNNIADLIESKDSIISPEYLSDEIFSAINNNLPHAYFKNLLFRLVANMDRSELSDLGTLIKDNLKRDLITSLPFEISLKIFNYLQFEDIINSLGVSQNWNKIIRKSTSLWKKLLISENFVSPKGFNSLNLKLSQKYPKLSQQDRLRLSFLENIFILKNWYNPKFVPQRTTLRGHMTSVITCLQFEDNYVITGADDKMIRVYDSINKKFLLQLSGHDGGVWALKYAHGGILVSGSTDRTVRVWDIKKGCCTHVFKGHNSTVRCLDIVEYKNIKYIVTGSRDNTLHVWKLPKESSVPDHGEEHDYPLVFHTPEENPYFVGVLRGHMASVRTVSGHGNIVVSGSYDNTLIVWDVAQMKCLYILSGHTDRIYSTIYDHERKRCISASMDTTIRIWDLENIWNNGECSYATNSASPCAKILGAMYTLQGHTALVGLLRLSDKFLVSAAADGSIRGWDANDYSRKFSYHHTNLSAITTFYVSDNILVSGSENQFNIYNLRSGKLVHANILKDADQIWSVNFKGKTLVAAVEKDGQSFLEILDFSKASKINYVSNPVNSSSSSLESISTSLGLTRTTIIP
notes: Untagged, expressed from baculovirus in insect cells
For B1, the “fold lower level of Cdc4 in immune complexes lacking Skp1 than in the presence of Skp1” value in assay [2] was > 10 fold.

B2: phosphorylated Sic1 (other, S. cerevisiae, UniProt P38634 1-284, looked up)
chain: MTPSTPPRSRGTRYLAQPSGNTSSSALMQGQKTPQKPSQNLVPVTPSTTKSFKNAPLLAPPNSNMGMTSPFNGLTSPQRSPFPKSSVKRTLFQFESHDNGTVREEQEPLGRVNRILFPTQQNVDIDAAEEEEEGEVLLPPSRPTSARQLHLSLERDEFDQTHRKKIIKDVPGTPSDKVITFELAKNWNNNSPKNDARSQESEDEEDIIINPVRVGKNPFASDELVTQEIRNERKRAMLRENPDIEDVITYVNKKGEVVEKRRLTDEEKRRFKPKALFQSRDQEH
modifications: phosphorylated in vitro by Gst-Cdc28HA/Cln1HA/Cks1 with ATP; sites not stated
notes: also called Cln1/Cdc28-phosphorylated Sic1; phosphorylated Sic1 complexes
For B2, the binding result in assay [3] is given as “no binding”. This molecule also showed a fold stimulation by Skp1 of the association of Sic1 with Cdc4 in assay [4] of 5 fold.

B3: Cdc34 (enzyme, S. cerevisiae, UniProt P14682 1-295, looked up)
chain: MSSRKSTASSLLLRQYRELTDPKKAIPSFHIELEDDSNIFTWNIGVMVLNEDSIYHGGFFKAQMRFPEDFPFSPPQFRFTPAIYHPNVYRDGRLCISILHQSGDPMTDEPDAETWSPVQTVESVLISIVSLLEDPNINSPANVDAAVDYRKNPEQYKQRVKMEVERSKQDIPKGFIMPTSESAYISQSKLDEPESNKDMADNFWYDSDLDDDENGSVILQDDDYDDGNNHIPFEDDDVYNYNDNDDDDERIEFEDDDDDDDDSIDNDSVMDRKQPHKAEDESEDVEDVERVSKKI
notes: Untagged baculovirus form in the assembly experiments; also called E2 Cdc34
With B3, the binding result in assay [5] was “binds”.

B4: phosphorylated Cln1HA (protein, S. cerevisiae, UniProt P20437 1-546, looked up, not shown: small tags and cut ends)
chain: MNHSEVKTGLIVTAKQTYYPIELSNAELLTHYETIQEYHEEISQNVLVQSSKTKPDIKLIDQQPEMNPHQTREAIVTFLYQLSVMTRVSNGIFFHAVRFYDRYCSKRVVLKDQAKLVVGTCLWLAAKTWGGCNHIINNVSIPTGGRFYGPNPRARIPRLSELVHYCGGSDLFDESMFIQMERHILDTLNWDVYEPMINDYILNVDENCLIQYELYKNQLQNNNSNGKEWSCKRKSQSSDDSDATVEEHISSSPQSTGLDGDTTTMDEDEELNSKIKLINLKRFLIDLSCWQYNLLKFELYEICNGMFSIINKFTNQDQGPFLSMPIGNDINSNTQTQVFSIIINGIVNSPPSLVEVYKEQYGIVPFILQVKDYNLELQKKLQLASTIDLTRKIAVNSRYFDQNASSSSVSSPSTYSSGTNYTPMRNFSAQSDNSVFSTTNIDHSSPITPHMYTFNQFKNESACDSAISVSSLPNQTQNGNMPLSSNYQNMMLEERNKENRIPNSSSAEIPQRAKFMTTGIFQNTGELTNRASSISLSLRNHNSSQL
modifications: autophosphorylated in Cln1/Cdc28 complexes with ATP; sites not stated
Take B4: the percent of the input associated (% of the input) in assay [6] came to 40; in assay [7] it was 6.

B5: phosphorylated Cln2HA (protein, S. cerevisiae, UniProt P20438 1-545, looked up, not shown: small tags and cut ends)
chain: MASAEPRPRMGLVINAKPDYYPIELSNAELLSHFEMLQEYHQEISTNVIAQSCKFKPNPKLIDQQPEMNPVETRSNIITFLFELSVVTRVTNGIFFHSVRLYDRYCSKRIVLRDQAKLVVATCLWLAAKTWGGCNHIINNVVIPTGGRFYGPNPRARIPRLSELVHYCGDGQVFDESMFLQMERHILDTLNWNIYEPMINDYVLNVDENCLMQYELYENQVTYDKQCSEKRQSQLSQDSDATVDERPYQNEEEEEEDLKLKIKLINLKKFLIDVSAWQYDLLRYELFEVSHGIFSIINQFTNQDHGPFLMTPMTSESKNGEILSTLMNGIVSIPNSLMEVYKTVNGVLPFINQVKEYHLDLQRKLQIASNLNISRKLTISTPSCSFENSNSTSIPSPASSSQSHTPMRNMSSLSDNSVFSRNMEQSSPITPSMYQFGQQQSNSICGSTVSVNSLVNTNNKQRIYEQITGPNSNNATNDYIDLLNLNESNKENQNPATAHYLNGGPPKTSFINHGMFPSPTGTINSGKSSSASSLISFGMGNTQVI
modifications: autophosphorylated in Cln2/Cdc28 complexes with ATP; sites not stated
As for B5, the percent of the input associated (% of the input) turned out to be 40 in assay [6] and 6 in assay [7].
